{"source": "patent US11819556B2", "about": "“Stabilized compositions of radionuclides and uses thereof” (RayzeBio, Inc., priority 2021, dated 2023)", "type_in_all_cases": "physicochemical", "key": {"[1]": {"assay": "Sodium ascorbate concentration optimization: radio-TLC purity", "settings": "25° C.", "method": "The mixture was kept at room temperature (25° C.). At different time points, radioactive components of the formulated dose were measured by radio-TLC as described in the table below: […]"}, "[2]": {"assay": "Radioactivity concentration optimization: radio-TLC purity", "settings": "100 mM sodium ascorbate pH 5.80, 0.05 mg/ml DTPA, 25° C.", "method": "The mixture was kept at room temperature (25° C.) and protected from light to prevent photodegradation. At different time points, purity of [^225Ac]Ac-DOTA-TATE in the formulated dose were measured by radio-TLC as described in the table below: […]"}, "[3]": {"assay": "Control formulation without excipient (WFI): radio-TLC purity", "settings": "0.02 mCi/ml; for free Actinium / fragments: 25° C.; for Percentage of ^225Ac present in [^225Ac]Ac-DOTA-TATE: pH 6.13, 25° C.", "method": "The mixture was kept at room temperature (25° C.). At different time points, purity of [^225Ac]Ac-DOTA-TATE in the formulated dose were measured by radio-TLC as described in the table below: […]"}}, "data": [{"substance": "(2,2′,2″-(10-(2-4(R)-1-(((4R,7S,10S,13R,16S,19R)-13-((1H-indol-3-yl)methyl)-10-(4-aminobutyl)-4-(((1S,2R)-1-carboxy-2-hydroxypropyl)carbamoyl)-16-(4-hydroxybenzyl)-7-((R)-1-hydroxyethyl)-6,9,12,15,18-pentaoxo-1,2-dithia-5,8,11,14,17-pentaazacycloicosan-19-yl)amino)-1-oxo-3-phenylpropan-2-yl)amino)-2-oxoethyl)-1,4,7,10-tetraazacyclododecane-1,4,7-triyl)triacetate; actinium-225(3+)) [[^225Ac]Ac-DOTA-TATE]", "values": [{"measurement": "Percentage of ^225Ac present in [^225Ac]Ac-DOTA-TATE", "setting": "[1]; sodium ascorbate 1 mM, 0 hour, Radioactivity concentration at 1 mCi/ml", "result": 99.76, "unit": "%"}, {"measurement": "Percentage of ^225Ac present in [^225Ac]Ac-DOTA-TATE", "setting": "[1]; sodium ascorbate 1 mM, 24 hours, Radioactivity concentration at 1 mCi/ml", "result": 91.11, "unit": "%"}, {"measurement": "Percentage of ^225Ac present in [^225Ac]Ac-DOTA-TATE", "setting": "[1]; sodium ascorbate 1 mM, 48 hours, Radioactivity concentration at 1 mCi/ml", "result": 52.06, "unit": "%"}, {"measurement": "Percentage of ^225Ac present in [^225Ac]Ac-DOTA-TATE", "setting": "[1]; sodium ascorbate 10 mM, 0 hour, Radioactivity concentration at 1 mCi/ml", "result": 99.78, "unit": "%"}, {"measurement": "Percentage of ^225Ac present in [^225Ac]Ac-DOTA-TATE", "setting": "[1]; sodium ascorbate 10 mM, 24 hours, Radioactivity concentration at 1 mCi/ml", "result": 92.21, "unit": "%"}, {"measurement": "Percentage of ^225Ac present in [^225Ac]Ac-DOTA-TATE", "setting": "[1]; sodium ascorbate 10 mM, 48 hours, Radioactivity concentration at 1 mCi/ml", "result": 86.11, "unit": "%"}, {"measurement": "Percentage of ^225Ac present in [^225Ac]Ac-DOTA-TATE", "setting": "[1]; sodium ascorbate 100 mM, 0 hour, 0.02 mCi/ml, 0.05 mg/ml DTPA", "result": 99.15, "unit": "%"}, {"measurement": "Percentage of ^225Ac present in [^225Ac]Ac-DOTA-TATE", "setting": "[1]; sodium ascorbate 100 mM, 24 hours, 0.02 mCi/ml, 0.05 mg/ml DTPA", "result": 98.76, "unit": "%"}, {"measurement": "Percentage of ^225Ac present in [^225Ac]Ac-DOTA-TATE", "setting": "[1]; sodium ascorbate 100 mM, 48 hours, 0.02 mCi/ml, 0.05 mg/ml DTPA", "result": 96.94, "unit": "%"}, {"measurement": "Percentage of ^225Ac present in [^225Ac]Ac-DOTA-TATE", "setting": "[1]; sodium ascorbate 100 mM, 72 hours, 0.02 mCi/ml, 0.05 mg/ml DTPA", "result": 96.16, "unit": "%"}, {"measurement": "Percentage of ^225Ac present in [^225Ac]Ac-DOTA-TATE", "setting": "[1]; sodium ascorbate 100 mM, 96 hours, 0.02 mCi/ml, 0.05 mg/ml DTPA", "result": 95.84, "unit": "%"}, {"measurement": "Percentage of ^225Ac present in [^225Ac]Ac-DOTA-TATE", "setting": "[1]; sodium ascorbate 100 mM, 120 hours, 0.02 mCi/ml, 0.05 mg/ml DTPA", "result": 95.44, "unit": "%"}, {"measurement": "Percentage of ^225Ac present in [^225Ac]Ac-DOTA-TATE", "setting": "[1]; sodium ascorbate 100 mM, 144 hours, 0.02 mCi/ml, 0.05 mg/ml DTPA", "result": 95.34, "unit": "%"}, {"measurement": "Percentage of ^225Ac present in [^225Ac]Ac-DOTA-TATE", "setting": "[1]; sodium ascorbate 200 mM, 0 hour, 0.02 mCi/ml, 0.05 mg/ml DTPA", "result": 99.22, "unit": "%"}, {"measurement": "Percentage of ^225Ac present in [^225Ac]Ac-DOTA-TATE", "setting": "[1]; sodium ascorbate 200 mM, 24 hours, 0.02 mCi/ml, 0.05 mg/ml DTPA", "result": 98.16, "unit": "%"}, {"measurement": "Percentage of ^225Ac present in [^225Ac]Ac-DOTA-TATE", "setting": "[1]; sodium ascorbate 200 mM, 48 hours, 0.02 mCi/ml, 0.05 mg/ml DTPA", "result": 97.12, "unit": "%"}, {"measurement": "Percentage of ^225Ac present in [^225Ac]Ac-DOTA-TATE", "setting": "[1]; sodium ascorbate 200 mM, 72 hours, 0.02 mCi/ml, 0.05 mg/ml DTPA", "result": 95.63, "unit": "%"}, {"measurement": "Percentage of ^225Ac present in [^225Ac]Ac-DOTA-TATE", "setting": "[1]; sodium ascorbate 200 mM, 96 hours, 0.02 mCi/ml, 0.05 mg/ml DTPA", "result": 95.51, "unit": "%"}, {"measurement": "Percentage of ^225Ac present in [^225Ac]Ac-DOTA-TATE", "setting": "[1]; sodium ascorbate 200 mM, 120 hours, 0.02 mCi/ml, 0.05 mg/ml DTPA", "result": 94.38, "unit": "%"}, {"measurement": "Percentage of ^225Ac present in [^225Ac]Ac-DOTA-TATE", "setting": "[1]; sodium ascorbate 200 mM, 144 hours, 0.02 mCi/ml, 0.05 mg/ml DTPA", "result": 91.27, "unit": "%"}, {"measurement": "Percentage of ^225Ac present in [^225Ac]Ac-DOTA-TATE", "setting": "[2]; 15 μCi/ml, 0 hour", "result": 99.37, "unit": "%"}, {"measurement": "Percentage of ^225Ac present in [^225Ac]Ac-DOTA-TATE", "setting": "[2]; 15 μCi/ml, 24 hours", "result": 96.92, "unit": "%"}, {"measurement": "Percentage of ^225Ac present in [^225Ac]Ac-DOTA-TATE", "setting": "[2]; 15 μCi/ml, 48 hours", "result": 96.08, "unit": "%"}, {"measurement": "Percentage of ^225Ac present in [^225Ac]Ac-DOTA-TATE", "setting": "[2]; 15 μCi/ml, 72 hours", "result": 98.74, "unit": "%"}, {"measurement": "Percentage of ^225Ac present in [^225Ac]Ac-DOTA-TATE", "setting": "[2]; 15 μCi/ml, 96 hours", "result": 94.83, "unit": "%"}, {"measurement": "Percentage of ^225Ac present in [^225Ac]Ac-DOTA-TATE", "setting": "[2]; 15 μCi/ml, 120 hours", "result": 93.49, "unit": "%"}, {"measurement": "Percentage of ^225Ac present in [^225Ac]Ac-DOTA-TATE", "setting": "[2]; 32 μCi/ml, 0 hour", "result": 99.39, "unit": "%"}, {"measurement": "Percentage of ^225Ac present in [^225Ac]Ac-DOTA-TATE", "setting": "[2]; 32 μCi/ml, 24 hours", "result": 97.92, "unit": "%"}, {"measurement": "Percentage of ^225Ac present in [^225Ac]Ac-DOTA-TATE", "setting": "[2]; 32 μCi/ml, 48 hours", "result": 97.13, "unit": "%"}, {"measurement": "Percentage of ^225Ac present in [^225Ac]Ac-DOTA-TATE", "setting": "[2]; 32 μCi/ml, 72 hours", "result": 95.31, "unit": "%"}, {"measurement": "Percentage of ^225Ac present in [^225Ac]Ac-DOTA-TATE", "setting": "[2]; 32 μCi/ml, 96 hours", "result": 92.52, "unit": "%"}, {"measurement": "Percentage of ^225Ac present in [^225Ac]Ac-DOTA-TATE", "setting": "[2]; 32 μCi/ml, 120 hours", "result": 85.90, "unit": "%"}, {"measurement": "Percentage of ^225Ac present in [^225Ac]Ac-DOTA-TATE", "setting": "[2]; 68 μCi/ml, 0 hour", "result": 99.06, "unit": "%"}, {"measurement": "Percentage of ^225Ac present in [^225Ac]Ac-DOTA-TATE", "setting": "[2]; 68 μCi/ml, 24 hours", "result": 98.22, "unit": "%"}, {"measurement": "Percentage of ^225Ac present in [^225Ac]Ac-DOTA-TATE", "setting": "[2]; 68 μCi/ml, 48 hours", "result": 95.93, "unit": "%"}, {"measurement": "Percentage of ^225Ac present in [^225Ac]Ac-DOTA-TATE", "setting": "[2]; 68 μCi/ml, 72 hours", "result": 95.36, "unit": "%"}, {"measurement": "Percentage of ^225Ac present in [^225Ac]Ac-DOTA-TATE", "setting": "[2]; 68 μCi/ml, 96 hours", "result": 86.92, "unit": "%"}, {"measurement": "Percentage of ^225Ac present in [^225Ac]Ac-DOTA-TATE", "setting": "[2]; 126 μCi/ml, 0 hour", "result": 99.11, "unit": "%"}, {"measurement": "Percentage of ^225Ac present in [^225Ac]Ac-DOTA-TATE", "setting": "[2]; 126 μCi/ml, 24 hours", "result": 95.77, "unit": "%"}, {"measurement": "Percentage of ^225Ac present in [^225Ac]Ac-DOTA-TATE", "setting": "[2]; 126 μCi/ml, 48 hours", "result": 84.99, "unit": "%"}, {"measurement": "Percentage of ^225Ac present in [^225Ac]Ac-DOTA-TATE", "setting": "[2]; 301 μCi/ml, 0 hour", "result": 99.09, "unit": "%"}, {"measurement": "Percentage of ^225Ac present in [^225Ac]Ac-DOTA-TATE", "setting": "[2]; 301 μCi/ml, 24 hours", "result": 97.53, "unit": "%"}, {"measurement": "Percentage of ^225Ac present in [^225Ac]Ac-DOTA-TATE", "setting": "[2]; 301 μCi/ml, 48 hours", "result": 88.78, "unit": "%"}, {"measurement": "Percentage of ^225Ac present in [^225Ac]Ac-DOTA-TATE", "setting": "[2]; 550 μCi/ml, 0 hour", "result": 98.87, "unit": "%"}, {"measurement": "Percentage of ^225Ac present in [^225Ac]Ac-DOTA-TATE", "setting": "[2]; 550 μCi/ml, 24 hours", "result": 97.04, "unit": "%"}, {"measurement": "Percentage of ^225Ac present in [^225Ac]Ac-DOTA-TATE", "setting": "[2]; 550 μCi/ml, 48 hours", "result": 85.63, "unit": "%"}, {"measurement": "free Actinium", "setting": "[3]; 0 hour", "result": 0.5, "unit": "% free Actinium"}, {"measurement": "Percentage of ^225Ac present in [^225Ac]Ac-DOTA-TATE", "setting": "[3]; 0 hour", "result": 99.5, "unit": "%"}, {"measurement": "fragments", "setting": "[3]; 24 hours", "result": 3.2, "unit": "%"}, {"measurement": "free Actinium", "setting": "[3]; 24 hours", "result": 2.0, "unit": "%"}, {"measurement": "Percentage of ^225Ac present in [^225Ac]Ac-DOTA-TATE", "setting": "[3]; 24 hours", "result": 94.8, "unit": "%"}, {"measurement": "fragments", "setting": "[3]; 48 hours", "result": 4.8, "unit": "%"}, {"measurement": "free Actinium", "setting": "[3]; 48 hours", "result": 3.5, "unit": "%"}, {"measurement": "Percentage of ^225Ac present in [^225Ac]Ac-DOTA-TATE", "setting": "[3]; 48 hours", "result": 91.8, "unit": "%"}, {"measurement": "fragments", "setting": "[3]; 72 hours", "result": 7.7, "unit": "%"}, {"measurement": "free Actinium", "setting": "[3]; 72 hours", "result": 8.8, "unit": "%"}, {"measurement": "Percentage of ^225Ac present in [^225Ac]Ac-DOTA-TATE", "setting": "[3]; 72 hours", "result": 83.5, "unit": "%"}, {"measurement": "fragments", "setting": "[3]; 96 hours", "result": 11.8, "unit": "%"}, {"measurement": "free Actinium", "setting": "[3]; 96 hours", "result": 9.2, "unit": "%"}, {"measurement": "Percentage of ^225Ac present in [^225Ac]Ac-DOTA-TATE", "setting": "[3]; 96 hours", "result": 79.1, "unit": "%"}]}]}
